{"source": "paper PMC5275738", "biological_target": "SF3b145(598–631) fragment, tag-free recombinant (isotope-labeled) (human) (UniProt Q13435)", "sequence (Q13435 598-631)": "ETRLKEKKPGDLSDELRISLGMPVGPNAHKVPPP", "test": "NMR titration"}
{"substance": "human SF3b49 RRM1 (Pro5–Leu96), tag-free (from UniProt Q15427 5-96) (domain or fragment)", "values": [{"measurement": "Kd", "result": 50, "unit": "µM"}]}
